# Measured values as given in patent US20150073033A1 (University of Texas, published 2015).
# B1: FLAG-tagged WT β-catenin (other, UniProt P35222 1-781, looked up)
# chain: MATQADLMELDMAMEPDRKAAVSHWQQQSYLDSGIHSGATTTAPSLSGKGNPEEEDVDTSQVLYEWEQGFSQSFTQEQVADIDGQYAMTRAQRVRAAMFPETLDEGMQIPSTQFDAAHPTNVQRLAEPSQMLKHAVVNLINYQDDAELATRAIPELTKLLNDEDQVVVNKAAVMVHQLSKKEASRHAIMRSPQMVSAIVRTMQNTNDVETARCTAGTLHNLSHHREGLLAIFKSGGIPALVKMLGSPVDSVLFYAITTLHNLLLHQEGAKMAVRLAGGLQKMVALLNKTNVKFLAITTDCLQILAYGNQESKLIILASGGPQALVNIMRTYTYEKLLWTTSRVLKVLSVCSSNKPAIVEAGGMQALGLHLTDPSQRLVQNCLWTLRNLSDAATKQEGMEGLLGTLVQLLGSDDINVVTCAAGILSNLTCNNYKNKMMVCQVGGIEALVRTVLRAGDREDITEPAICALRHLTSRHQEAEMAQNAVRLHYGLPVVVKLLHPPSHWPLIKATVGLIRNLALCPANHAPLREQGAIPRLVQLLVRAHQDTQRRTSMGGTQQQFVEGVRMEEIVEGCTGALHILARDVHNRIVIRGLNTIPLFVQLLYSPIENIQRVAAGVLCELAQDKEAAEAIEAEGATAPLTELLHSRNEGVATYAAAVLFRMSEDKPQDYKKRLSVELTSSLFRTEPMAWNETADLGLDIGAQGEPLGYRQDDPSYRSFHSGGYGQDALGMDPMMEHEMGGHHPGADYPVDGLPDLGHAQDLMDGLPPGDSNQLAWFDTDL
# notes: Transiently expressed in U87/EGFR or A431 cells; also called FLAG-β-catenin; not shown: FLAG tag
# B2: FLAG-β-catenin Y333F (other, UniProt P35222 1-781, looked up)
# chain: MATQADLMELDMAMEPDRKAAVSHWQQQSYLDSGIHSGATTTAPSLSGKGNPEEEDVDTSQVLYEWEQGFSQSFTQEQVADIDGQYAMTRAQRVRAAMFPETLDEGMQIPSTQFDAAHPTNVQRLAEPSQMLKHAVVNLINYQDDAELATRAIPELTKLLNDEDQVVVNKAAVMVHQLSKKEASRHAIMRSPQMVSAIVRTMQNTNDVETARCTAGTLHNLSHHREGLLAIFKSGGIPALVKMLGSPVDSVLFYAITTLHNLLLHQEGAKMAVRLAGGLQKMVALLNKTNVKFLAITTDCLQILAYGNQESKLIILASGGPQALVNIMRTYTFEKLLWTTSRVLKVLSVCSSNKPAIVEAGGMQALGLHLTDPSQRLVQNCLWTLRNLSDAATKQEGMEGLLGTLVQLLGSDDINVVTCAAGILSNLTCNNYKNKMMVCQVGGIEALVRTVLRAGDREDITEPAICALRHLTSRHQEAEMAQNAVRLHYGLPVVVKLLHPPSHWPLIKATVGLIRNLALCPANHAPLREQGAIPRLVQLLVRAHQDTQRRTSMGGTQQQFVEGVRMEEIVEGCTGALHILARDVHNRIVIRGLNTIPLFVQLLYSPIENIQRVAAGVLCELAQDKEAAEAIEAEGATAPLTELLHSRNEGVATYAAAVLFRMSEDKPQDYKKRLSVELTSSLFRTEPMAWNETADLGLDIGAQGEPLGYRQDDPSYRSFHSGGYGQDALGMDPMMEHEMGGHHPGADYPVDGLPDLGHAQDLMDGLPPGDSNQLAWFDTDL
# notes: Transiently expressed in U87/EGFR or A431 cells; not shown: FLAG tag
# B3: endogenous β-catenin (other, human, UniProt P35222 2-781, looked up)
# chain: ATQADLMELDMAMEPDRKAAVSHWQQQSYLDSGIHSGATTTAPSLSGKGNPEEEDVDTSQVLYEWEQGFSQSFTQEQVADIDGQYAMTRAQRVRAAMFPETLDEGMQIPSTQFDAAHPTNVQRLAEPSQMLKHAVVNLINYQDDAELATRAIPELTKLLNDEDQVVVNKAAVMVHQLSKKEASRHAIMRSPQMVSAIVRTMQNTNDVETARCTAGTLHNLSHHREGLLAIFKSGGIPALVKMLGSPVDSVLFYAITTLHNLLLHQEGAKMAVRLAGGLQKMVALLNKTNVKFLAITTDCLQILAYGNQESKLIILASGGPQALVNIMRTYTYEKLLWTTSRVLKVLSVCSSNKPAIVEAGGMQALGLHLTDPSQRLVQNCLWTLRNLSDAATKQEGMEGLLGTLVQLLGSDDINVVTCAAGILSNLTCNNYKNKMMVCQVGGIEALVRTVLRAGDREDITEPAICALRHLTSRHQEAEMAQNAVRLHYGLPVVVKLLHPPSHWPLIKATVGLIRNLALCPANHAPLREQGAIPRLVQLLVRAHQDTQRRTSMGGTQQQFVEGVRMEEIVEGCTGALHILARDVHNRIVIRGLNTIPLFVQLLYSPIENIQRVAAGVLCELAQDKEAAEAIEAEGATAPLTELLHSRNEGVATYAAAVLFRMSEDKPQDYKKRLSVELTSSLFRTEPMAWNETADLGLDIGAQGEPLGYRQDDPSYRSFHSGGYGQDALGMDPMMEHEMGGHHPGADYPVDGLPDLGHAQDLMDGLPPGDSNQLAWFDTDL
# notes: In EGF-treated cells it is tyrosine-phosphorylated (Y333) in the nucleus
# What was measured:
# [1] = biological target: APC (endogenous, A431 cells) (UniProt P25054 2-2843, limits assumed); test: co-IP, A431 cells
# Chain of APC (endogenous, A431 cells) (P25054 2-2843 limits assumed): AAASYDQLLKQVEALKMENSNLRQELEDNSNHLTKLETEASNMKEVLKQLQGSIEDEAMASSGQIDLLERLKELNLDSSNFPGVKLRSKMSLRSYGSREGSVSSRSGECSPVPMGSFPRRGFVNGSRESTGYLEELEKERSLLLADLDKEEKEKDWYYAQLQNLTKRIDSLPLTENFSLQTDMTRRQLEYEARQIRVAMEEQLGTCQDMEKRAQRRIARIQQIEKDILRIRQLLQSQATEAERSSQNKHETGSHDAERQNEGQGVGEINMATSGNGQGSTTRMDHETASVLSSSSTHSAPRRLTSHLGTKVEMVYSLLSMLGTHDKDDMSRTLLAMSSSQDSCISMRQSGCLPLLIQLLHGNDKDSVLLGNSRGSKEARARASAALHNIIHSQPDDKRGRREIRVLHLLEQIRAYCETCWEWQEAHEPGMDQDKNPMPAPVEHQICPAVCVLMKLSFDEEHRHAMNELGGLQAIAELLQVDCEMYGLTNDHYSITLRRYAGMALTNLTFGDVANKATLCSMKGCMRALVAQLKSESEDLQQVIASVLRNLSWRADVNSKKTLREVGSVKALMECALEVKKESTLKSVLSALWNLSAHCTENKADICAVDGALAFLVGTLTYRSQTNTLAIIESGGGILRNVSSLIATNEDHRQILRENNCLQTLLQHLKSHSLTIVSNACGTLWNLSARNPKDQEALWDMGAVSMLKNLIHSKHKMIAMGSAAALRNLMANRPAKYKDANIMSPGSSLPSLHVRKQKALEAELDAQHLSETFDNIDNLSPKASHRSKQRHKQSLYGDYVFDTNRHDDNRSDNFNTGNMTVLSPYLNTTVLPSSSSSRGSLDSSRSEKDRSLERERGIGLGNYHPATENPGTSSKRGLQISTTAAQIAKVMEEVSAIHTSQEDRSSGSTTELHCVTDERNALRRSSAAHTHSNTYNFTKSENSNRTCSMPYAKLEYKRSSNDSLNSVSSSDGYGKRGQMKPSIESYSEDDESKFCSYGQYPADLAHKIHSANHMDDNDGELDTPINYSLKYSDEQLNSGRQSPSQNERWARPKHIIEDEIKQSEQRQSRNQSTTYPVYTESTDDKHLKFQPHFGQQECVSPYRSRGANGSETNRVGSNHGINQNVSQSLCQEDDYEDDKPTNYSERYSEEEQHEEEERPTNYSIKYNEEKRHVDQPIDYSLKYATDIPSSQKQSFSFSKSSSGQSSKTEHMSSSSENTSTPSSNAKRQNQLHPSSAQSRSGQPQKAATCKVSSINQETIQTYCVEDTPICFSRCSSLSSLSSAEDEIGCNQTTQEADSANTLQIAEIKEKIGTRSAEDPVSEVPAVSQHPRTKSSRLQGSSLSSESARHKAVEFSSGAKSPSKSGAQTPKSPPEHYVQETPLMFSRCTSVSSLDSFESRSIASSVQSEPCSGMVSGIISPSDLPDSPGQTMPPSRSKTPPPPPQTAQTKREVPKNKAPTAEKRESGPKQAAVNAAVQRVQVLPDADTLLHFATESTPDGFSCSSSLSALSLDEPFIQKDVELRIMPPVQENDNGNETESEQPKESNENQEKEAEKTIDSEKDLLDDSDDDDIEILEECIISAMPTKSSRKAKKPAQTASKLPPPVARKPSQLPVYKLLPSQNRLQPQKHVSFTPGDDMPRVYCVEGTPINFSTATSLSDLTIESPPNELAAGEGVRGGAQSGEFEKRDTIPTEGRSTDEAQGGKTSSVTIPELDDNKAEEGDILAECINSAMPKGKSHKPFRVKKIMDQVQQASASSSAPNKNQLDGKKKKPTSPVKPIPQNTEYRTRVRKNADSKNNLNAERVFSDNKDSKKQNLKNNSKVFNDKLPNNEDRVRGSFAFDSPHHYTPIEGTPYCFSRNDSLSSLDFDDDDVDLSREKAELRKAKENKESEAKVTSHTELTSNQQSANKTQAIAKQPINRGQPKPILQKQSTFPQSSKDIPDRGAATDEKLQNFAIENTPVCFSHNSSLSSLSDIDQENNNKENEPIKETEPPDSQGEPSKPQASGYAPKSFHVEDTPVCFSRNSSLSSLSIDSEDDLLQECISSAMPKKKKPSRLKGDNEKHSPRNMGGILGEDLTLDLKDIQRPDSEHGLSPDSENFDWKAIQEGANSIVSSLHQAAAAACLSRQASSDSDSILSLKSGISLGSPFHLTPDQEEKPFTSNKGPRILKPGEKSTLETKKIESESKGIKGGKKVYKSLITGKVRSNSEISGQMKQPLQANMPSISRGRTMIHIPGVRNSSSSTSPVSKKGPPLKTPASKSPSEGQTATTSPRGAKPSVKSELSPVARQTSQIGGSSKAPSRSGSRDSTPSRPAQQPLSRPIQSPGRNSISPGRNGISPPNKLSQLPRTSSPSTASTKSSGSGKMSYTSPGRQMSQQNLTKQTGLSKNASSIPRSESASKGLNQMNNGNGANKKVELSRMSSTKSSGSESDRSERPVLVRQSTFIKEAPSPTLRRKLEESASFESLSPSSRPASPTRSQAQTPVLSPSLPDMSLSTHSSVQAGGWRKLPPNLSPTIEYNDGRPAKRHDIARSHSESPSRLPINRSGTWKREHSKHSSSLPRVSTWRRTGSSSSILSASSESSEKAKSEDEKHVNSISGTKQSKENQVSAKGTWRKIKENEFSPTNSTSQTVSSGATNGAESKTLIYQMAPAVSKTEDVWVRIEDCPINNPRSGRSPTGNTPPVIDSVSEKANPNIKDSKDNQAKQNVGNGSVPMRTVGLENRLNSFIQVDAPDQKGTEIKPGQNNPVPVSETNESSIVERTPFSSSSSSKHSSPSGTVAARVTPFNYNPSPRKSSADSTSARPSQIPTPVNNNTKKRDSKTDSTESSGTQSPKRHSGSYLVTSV
# [2] = biological target: AXIN2 (endogenous, A431 cells) (UniProt Q9Y2T1 1-843); test: co-IP, A431 cells
# Chain of AXIN2 (endogenous, A431 cells) (Q9Y2T1 whole entry): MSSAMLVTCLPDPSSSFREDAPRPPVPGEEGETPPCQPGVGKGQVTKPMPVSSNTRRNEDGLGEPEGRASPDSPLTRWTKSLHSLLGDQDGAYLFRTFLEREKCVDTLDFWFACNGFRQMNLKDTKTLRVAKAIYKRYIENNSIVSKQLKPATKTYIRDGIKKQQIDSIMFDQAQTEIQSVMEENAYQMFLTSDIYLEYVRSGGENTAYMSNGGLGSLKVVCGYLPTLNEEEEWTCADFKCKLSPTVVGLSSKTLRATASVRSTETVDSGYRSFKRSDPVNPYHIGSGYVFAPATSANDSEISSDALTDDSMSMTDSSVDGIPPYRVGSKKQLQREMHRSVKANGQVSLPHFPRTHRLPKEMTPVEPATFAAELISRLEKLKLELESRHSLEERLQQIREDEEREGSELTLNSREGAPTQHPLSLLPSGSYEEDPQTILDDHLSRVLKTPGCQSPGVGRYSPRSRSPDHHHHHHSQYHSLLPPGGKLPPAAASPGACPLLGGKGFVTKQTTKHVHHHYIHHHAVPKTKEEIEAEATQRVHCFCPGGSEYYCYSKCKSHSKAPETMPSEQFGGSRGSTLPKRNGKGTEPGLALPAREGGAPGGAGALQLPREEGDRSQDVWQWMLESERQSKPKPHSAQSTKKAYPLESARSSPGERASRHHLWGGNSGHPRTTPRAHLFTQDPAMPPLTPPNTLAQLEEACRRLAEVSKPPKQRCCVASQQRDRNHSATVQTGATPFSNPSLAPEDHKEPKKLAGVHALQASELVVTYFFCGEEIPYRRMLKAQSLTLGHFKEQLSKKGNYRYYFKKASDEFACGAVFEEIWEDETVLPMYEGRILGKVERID
# FLAG-β-catenin Y333F = biological target: B2; test: co-IP, A431 cells
# FLAG-tagged WT β-catenin = biological target: B1; test: co-IP, A431 cells
# endogenous β-catenin = biological target: B3; test: co-IP, EGF-treated U87/EGFR cells
# endogenous c-Src = endogenous c-Src (human, UniProt P12931 2-536); test: co-IP from nuclear fractions of U87/EGFR cells
# purified GST-importin α5 = biological target: T1, purified GST-importin α5 (human, UniProt P52294 1-538, limits assumed); test: GST pull-down from lysates of EGF-treated U87/EGFR cells
# T1 construct: Expressed in bacteria and purified; not shown: GST
# T1 sequence (P52294 whole entry): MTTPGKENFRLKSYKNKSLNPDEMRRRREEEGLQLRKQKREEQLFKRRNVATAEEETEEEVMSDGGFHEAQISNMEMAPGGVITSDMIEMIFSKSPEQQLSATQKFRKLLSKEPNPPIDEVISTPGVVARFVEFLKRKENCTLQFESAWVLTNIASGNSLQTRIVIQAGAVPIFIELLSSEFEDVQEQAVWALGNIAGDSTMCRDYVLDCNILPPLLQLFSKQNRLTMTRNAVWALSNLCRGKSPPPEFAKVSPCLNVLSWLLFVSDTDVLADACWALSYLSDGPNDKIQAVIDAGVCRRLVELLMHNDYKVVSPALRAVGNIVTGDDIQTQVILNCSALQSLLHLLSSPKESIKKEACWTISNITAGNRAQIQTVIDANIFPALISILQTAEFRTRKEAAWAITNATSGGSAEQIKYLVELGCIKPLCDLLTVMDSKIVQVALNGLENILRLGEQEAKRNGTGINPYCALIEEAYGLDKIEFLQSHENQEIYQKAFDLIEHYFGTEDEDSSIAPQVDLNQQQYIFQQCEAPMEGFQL
binder,measurement,setting,value
B1,binding result,[1],binds
same,binding result,[2],binds
"E-cadherin (endogenous, A431 cells) (other, UniProt P12830 155-882, looked up) DWVIPPISCPENEKGPFPKNLVQIKSNKDKEGKVFYSITGQGADTPPVGVFIIERETGWLKVTEPLDRERIATYTLFSHAVSSNGNAVEDPMEILITVTDQNDNKPEFTQEVFKGSVMEGALPGTSVMEVTATDADDDVNTYNAAIAYTILSQDPELPDKNMFTINRNTGVISVVTTGLDRESFPTYTLVVQAADLQGEGLSTTATAVITVTDTNDNPPIFNPTTYKGQVPENEANVVITTLKVTDADAPNTPAWEAVYTILNDDGGQFVVTTNPVNNDGILKTAKGLDFEAKQQYILHVAVTNVVPFEVSLTTSTATVTVDVLDVNEAPIFVPPEKRVEVSEDFGVGQEITSYTAQEPDTFMEQKITYRIWRDTANWLEINPDTGAISTRAELDREDFEHVKNSTYTALIIATDNGSPVATGTGTLLLILSDVNDNAPIPEPRTIFFCERNPKPQVINIIDADLPPNTSPFTAELTHGASANWTIQYNDPTQESIILKPKMALEVGDYKINLKLMDNQNKDQVTTLEVSVCDCEGAAGVCRKAQPVEAGLQIPAILGILGGILALLILILLLLLFLRRRAVVKEPLLPPEDDTRDNVYYYDEEGGGEEDQDFDLSQLHRGLDARPEVTRNDVAPTLMSVPRYLPRPANPDEIGNFIDENLKAADTDPTAPPYDSLLVFDYEGSGSEAASLSSLNSSESDKDQDYDYLNEWGNRFKKLADMYGGGEDD",binding result,FLAG-β-catenin Y333F,binds
same,binding result,FLAG-tagged WT β-catenin,binds
B2,binding result,[1],binds
same,binding result,[2],binds
"FLAG-tagged wild-type PKM2 (enzyme, Expressed in U87/EGFR cells; also called FLAG-PKM2; WT FLAG-PKM2) not shown",binding result,endogenous β-catenin,binds
"FLAG-PKM2 K367M (kinase-dead) (enzyme, Expressed in U87/EGFR cells) not shown",binding result,endogenous β-catenin,binds
B3,binding result,endogenous c-Src,binds
"FLAG-PKM2 R399/400A (enzyme, Expressed in U87/EGFR cells) not shown",binding result,purified GST-importin α5,no binding
"FLAG-PKM2 K433E (enzyme, Expressed in U87/EGFR cells; also called PKM2 K433E mutant) not shown",binding result,endogenous β-catenin,no binding
